T1: PydAc (Clostridium chromiireducens, UniProt A0A399ILH0)
T1 construct: gene preA; FMN and two Fdx domains, no FAD/NADPH domain; strain C1 (DSM12136) is given only for the growth test
T1 sequence (A0A399ILH0 1-499): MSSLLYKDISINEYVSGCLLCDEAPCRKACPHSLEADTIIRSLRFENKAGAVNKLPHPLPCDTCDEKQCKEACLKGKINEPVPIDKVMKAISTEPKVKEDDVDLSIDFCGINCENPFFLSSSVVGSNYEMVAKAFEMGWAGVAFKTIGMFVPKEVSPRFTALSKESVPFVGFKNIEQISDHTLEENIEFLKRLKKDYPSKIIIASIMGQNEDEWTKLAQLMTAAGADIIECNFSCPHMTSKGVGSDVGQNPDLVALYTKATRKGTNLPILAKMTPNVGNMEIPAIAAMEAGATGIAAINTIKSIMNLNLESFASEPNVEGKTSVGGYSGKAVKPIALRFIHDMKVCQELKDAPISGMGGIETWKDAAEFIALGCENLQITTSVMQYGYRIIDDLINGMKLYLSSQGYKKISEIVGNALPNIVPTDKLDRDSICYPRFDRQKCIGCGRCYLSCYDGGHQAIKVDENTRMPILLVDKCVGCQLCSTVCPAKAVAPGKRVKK

B1: PydAc (Clostridium chromiireducens) (protein)
chain: T1 sequence (A0A399ILH0 1-499)
notes: FMN and two Fdx domains, no FAD/NADPH domain; strain C1 (DSM12136) is given only for the growth test

Key:
[1] = target: T1, PydAc; experiment: spectrophotometric assay of reduced methyl viologen oxidation at […] nm, anaerobic; activity with and without added FMN; assay type: biochemical; conditions: 15 uM FMN added, uracil, pH 7.5, predominantly apo recombinant enzyme
[2] = substrate: O=c1cc[nH]c(=O)[nH]1; experiment: purified protein; assay type: biochemical, Clostridium chromiireducens; conditions: 0.1 mM reduced methyl viologen (MV+), 15 uM FMN, 0.1 M KCl, 20 mM Tris-HCl, pH 7.5, 0.2 uM reconstituted PydAc

Row | Molecule | spectrophotometric assay of reduced methyl viologen oxidation at 600 nm, anaerob [1] | Km [2] [µM] | kcat [2] [s⁻¹]
1 | Cc1cc2nc3c(=O)[nH]c(=O)nc-3n(C[C@H](O)[C@H](O)[C@H](O)COP(=O)(O)O)c2cc1C [FMN] | omission of FMN from the assay mixture led to a large decrease in activity | – | –
2 | B1 | – | 130 ± 30 | 0.92 ± 0.04

From PMC7332683, “A ferredoxin-dependent dihydropyrimidine dehydrogenase in Clostridium chromiireducens” (Bioscience Reports, 2020)
